Patent publication US20240327506A1, “METHODS AND COMPOSITION FOR THE SELECTIVE ENHANCEMENT OF ADOPTIVE CELL THERAPY” (MaineHealth, priority 2023, published 2024)

Target: T1, β3 integrin (Homo sapiens, UniProt P05106+P06756)
T1 construct: we next stimulated human Jurkat T-cells or primary CD8+ T-cells with a synthetic version of the soluble RGDKGE; endogenous in cells; host or cells: Jurkat T-cells
Assay: Western blot of β3 integrin phosphorylation in Jurkat T-cells after peptide stimulation
Format: cell-based
Settings: compared to control peptide CP
Procedure: FIGS. 2A-2F. Detection of RGDKGE (SEQ ID NO: 1)-containing collagen peptide in malignant tumor cells and expression of key signaling molecules in T-cells. Briefly, whole cell lysates and serum free concentrated conditioned medium was prepared from tumor cells lines. FIG. 2A. Western blot analysis of whole cell lysates from human C8161 and murine B16F10 melanoma cells for the expression of the low molecular weight 16 kDa RGDKGE (SEQ ID NO: 1)-containing collagen peptide (XL313) or actin as a loading control. FIG. 2B. […]
Whole cell and CAM tissue lysates were collected in RIPA buffer (10 mM Tris-HCl, pH 8.0; 1 mM EDTA; 0.5 mM EGTA; 1% Triton X-100; 0.1% Sodium Deoxycholate; 0.1% SDS; 140 mM NaCl) supplemented with 1× protease inhibitor and 1× phosphatase inhibitor and were run on polyacrylamide gels using denaturing conditions. […] Western blot bands were quantified using Image J software based on pixel intensity.
We previously made the surprising observation that a small bioactive collagen peptide containing the core amino acid sequence RGDKGE (SEQ ID NO: 1) could be generated inside a subset of M2-like activated macrophages as well as a variety of other malignant tumor cells, and then actively secreted outside the cells (11-13). Importantly, minimal levels of this soluble collagen peptide was detected in normal cells (13). […]

T1 sequence (P05106 27-788): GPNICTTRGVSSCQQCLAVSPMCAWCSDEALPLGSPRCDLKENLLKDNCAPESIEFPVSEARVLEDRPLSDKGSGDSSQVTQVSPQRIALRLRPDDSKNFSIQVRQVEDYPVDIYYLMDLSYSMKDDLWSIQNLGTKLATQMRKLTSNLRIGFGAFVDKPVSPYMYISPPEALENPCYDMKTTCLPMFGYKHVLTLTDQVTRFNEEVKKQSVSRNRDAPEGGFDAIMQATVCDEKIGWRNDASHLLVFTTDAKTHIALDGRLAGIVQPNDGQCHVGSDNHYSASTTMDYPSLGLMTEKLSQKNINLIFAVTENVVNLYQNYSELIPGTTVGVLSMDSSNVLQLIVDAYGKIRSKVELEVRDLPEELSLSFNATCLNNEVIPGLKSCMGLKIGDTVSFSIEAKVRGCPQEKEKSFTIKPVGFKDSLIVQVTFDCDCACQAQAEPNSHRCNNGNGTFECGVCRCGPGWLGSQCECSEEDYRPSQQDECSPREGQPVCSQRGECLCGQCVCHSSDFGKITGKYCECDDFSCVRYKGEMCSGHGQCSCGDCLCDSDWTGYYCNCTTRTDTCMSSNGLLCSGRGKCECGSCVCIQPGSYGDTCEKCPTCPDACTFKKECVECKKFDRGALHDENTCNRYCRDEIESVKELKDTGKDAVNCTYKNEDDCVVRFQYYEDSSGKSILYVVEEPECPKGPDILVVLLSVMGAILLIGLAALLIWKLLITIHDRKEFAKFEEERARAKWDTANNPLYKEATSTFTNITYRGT
T1 sequence (P06756 31-889 limits assumed): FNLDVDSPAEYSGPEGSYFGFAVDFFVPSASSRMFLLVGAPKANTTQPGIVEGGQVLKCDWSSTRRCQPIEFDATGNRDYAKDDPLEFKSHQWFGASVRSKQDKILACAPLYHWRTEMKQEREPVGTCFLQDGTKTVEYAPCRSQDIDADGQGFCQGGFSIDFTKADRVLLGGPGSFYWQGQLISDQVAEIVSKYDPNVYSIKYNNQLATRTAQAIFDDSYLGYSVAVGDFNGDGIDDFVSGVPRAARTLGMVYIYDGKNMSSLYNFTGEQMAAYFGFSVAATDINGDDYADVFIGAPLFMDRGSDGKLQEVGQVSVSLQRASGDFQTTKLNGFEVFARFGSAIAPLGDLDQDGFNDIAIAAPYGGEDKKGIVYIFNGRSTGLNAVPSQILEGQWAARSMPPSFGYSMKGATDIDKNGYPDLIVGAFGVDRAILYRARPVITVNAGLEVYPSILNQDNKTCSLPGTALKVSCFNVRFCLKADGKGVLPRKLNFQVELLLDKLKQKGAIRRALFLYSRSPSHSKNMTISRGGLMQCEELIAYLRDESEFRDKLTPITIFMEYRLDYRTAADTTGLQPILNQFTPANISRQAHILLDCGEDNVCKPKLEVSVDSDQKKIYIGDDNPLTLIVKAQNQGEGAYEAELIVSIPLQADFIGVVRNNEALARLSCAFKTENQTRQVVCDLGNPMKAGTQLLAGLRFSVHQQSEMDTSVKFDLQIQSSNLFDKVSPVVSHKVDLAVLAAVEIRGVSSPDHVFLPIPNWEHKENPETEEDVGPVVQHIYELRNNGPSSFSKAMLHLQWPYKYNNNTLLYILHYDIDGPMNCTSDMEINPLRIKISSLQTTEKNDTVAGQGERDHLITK
T1 sequence (P06756 891-1048 partner limits assumed): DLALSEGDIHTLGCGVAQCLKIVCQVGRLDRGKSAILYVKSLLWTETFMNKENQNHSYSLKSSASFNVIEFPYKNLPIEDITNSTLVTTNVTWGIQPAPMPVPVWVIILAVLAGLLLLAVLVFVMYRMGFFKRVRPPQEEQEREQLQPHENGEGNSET

## QGPRGDKGE (CQGPRGDKGEC; Synthetic: Synthetic collagen RGD containing peptide P-2) [Peptide P2, synthetic version of the soluble RGDKGE-containing collagen peptide]
  β3 integrin phosphorylation: enhanced β3 integrin phosphorylation
